B1: PilT^Pa two-hybrid fusion from pKT25::PilT^Pa (wild type) [Pseudomonas aeruginosa] / PilT^Pa two-hybrid fusion from pUT18C::pilT [Pseudomonas aeruginosa] (parent)
chain 1: MDITELLAFSAKQGASDLHLSAGLPPMIRVDGDVRRINLPPLEHKQVHALIYDIMNDKQRKDFEEFLETDFSFEVPGVARFRVNAFNQNRGAGAVFRTIPSKVLTMEELGMGEVFKRVSDVPRGLVLVTGPTGSGKSTTLAAMLDYLNNTKYHHILTIEDPIEFVHESKKCLVNQREVHRDTLGFSEALRSALREDPDIILVGEMRDLETIRLALTAAETGHLVFGTLHTTSAAKTIDRVVDVFPAEEKAMVRSMLSESLQSVISQTLIKKIGGGRVAAHEIMIGTPAIRNLIREDKVAQMYSAIQTGGSLGMQTLDMCLKGLVAKGLISRENAREKAKIPENF
chain 2: B1 chain 1
B2: PilT^Pa two-hybrid fusion from pKT25::PilT^Pa (wild type) [Pseudomonas aeruginosa] / PilC^Pa two-hybrid fusion from pUT18C::PilC^Pa [Pseudomonas aeruginosa] (parent)
chain 1: B1 chain 1
chain 2: MLVKAHLRKQGINPLKVRKKGISLLGAGKKVKPMDIALFTRQMATMMGAGVPLLQSFDIIGEGFDNPNMRKLVDEIKQEVSSGNSLANSLRKKPQYFDELYCNLVDAGEQSGALENLLDRVATYKEKTESLKAKIRKAMTYPIAVIIVALIVSAILLIKVVPQFQSVFQGFGAELPAFTQMVVNLSEFLQEWWLAVIVGVGAIGFTFKELHKRSKKFRDTLDRTILKLPIFGGIVYKSAVARYARTLSTTFAAGVPLVDALDSVSGATGNIVFKNAVSKIKQDVSTGMQLNFSMRTTSVFPNMAIQMTAIGEESGSLDEMLSKVASYYEEEVDNAVDNLTTLMEPMIMAVLGVLVGGLIVAMYLPIFQLGNVVG

In the first assay the parent is B1. In words: bacterial two-hybrid (BACTH), β-galactosidase activity. The settings on record: with PilT^Pa two-hybrid fusion from pUT18C::pilT [Pseudomonas aeruginosa]; E. coli BTH101; n = 3; parent: 9.3e+03; read off a plot.
For chain 1 T216R, the response came out at 10000 Miller units.

As for chain 1 E204A, the response was determined as 8000 Miller units.

As for chain 1 K58A, the response was 10000 Miller units.

As to chain 1 K58R, the response turned out to be 11000 Miller units.

For chain 1 K58Q, the response worked out at 10000 Miller units.

With chain 1 D31K, the response was 7000 Miller units.

As for chain 1 E219K, the response came out at 8600 Miller units.

As to chain 1 R123D, the response was 8000 Miller units.

chain 1 D242K: the response worked out at 8000 Miller units.

On to chain 1 R294E, for which the response is 8600 Miller units.

chain 1 H229A: the response amounted to 11000 Miller units.

Regarding chain 1 R239A, the response worked out at 11000 Miller units.

Take chain 1 E258A: the response amounted to 9300 Miller units.

In the next assay the parent is B2. The description is as above. The settings on record: with PilC^Pa two-hybrid fusion from pUT18C::PilC^Pa [Pseudomonas aeruginosa]; E. coli BTH101; n = 3; parent: 650; read off a plot.
Regarding chain 1 E204A, the response is 460 Miller units.

Regarding chain 1 H229A, the response amounted to 650 Miller units.

The values are drawn from PMC6858323, “Multiple conformations facilitate PilT function in the type IV pilus” (Nature Communications, 2019).
